B1: Nucleosome-remodeling factor subunit BPTF, residues 2862 to 2918; numbered along this chain, Q12830 (parent)
chain: TKKDTKLYCICKTPYDESKFYIGCDRCQNWYHGRCVGILQSEAELIDEYVCPQCQST

± gives the uncertainty stated by the source.

The data set covers variants of B1. Description: abundance fitness (aPCA) (normalised: wild type 0, dead -1); higher = more abundant; growth selection in yeast, the domain comes from the species named. Conditions: Homo sapiens.
With TKKDTKLYCICKTPYDESKFYIGCDRCQNWYHGRCVGILQSEAELIDELVCPQCQST, the abundance fitness was -0.36 ± 0.075.

As for TKKDTKLYCICKTPYDESKFYIGCDRCQNWYHGRCVGILQSEAELIDEMVCPQCQST, the abundance fitness was -0.481 ± 0.11.

Consider TKKDTKLYCICKTPYDESKFYIGCDRCQNWYHGRCVGILQSEAELIDEQVCPQCQST, for which the abundance fitness was -0.615 ± 0.15.

For TKKDTKLYCICKTPYDESKFYIGCDRCQNWYHGRCVGILQSEAELIDEFVCPQCQST, the abundance fitness was -0.069 ± 0.11.

For the variant TKKDTKLYCICKTPYDESKFYIGCDRCQNWYHGRCVGILQSEAELIDEHVCPQCQST, the abundance fitness was -0.491 ± 0.17.

On to TKKDTKLYCICKTPYDESKFYIGCDRCQNWYHGRCVGILQSEAELIDECVCPQCQST, for which the abundance fitness is -0.761 ± 0.18.

Take TKKDTKLYCICKTPYDESKFYIGCDRCQNWYHGRCVGILQSEAELIDEAVCPQCQST: the abundance fitness is -0.382 ± 0.094.

Take TKKDTKLYCICKTPYDESKFYIGCDRCQNWYHGRCVGILQSEAELIDEDVCPQCQST: the abundance fitness was -0.715 ± 0.12.

For the variant TKKDTKLYCICKTPYDESKFYIGCDRCQNWYHGRCVGILQSEAELIDEPVCPQCQST, the abundance fitness was -0.494 ± 0.13.

Take TKKDTKLYCICKTPYDESKFYIGCDRCQNWYHGRCVGILQSEAELIDEWVCPQCQST: the abundance fitness is -0.055 ± 0.12.

Take TKKDTKLYCICKTPYDESKFYIGCDRCQNWYHGRCVGILQSEAELIDESVCPQCQST: the abundance fitness was -0.427 ± 0.075.

Turning to TKKDTKLYCICKTPYDESKFYIGCDRCQNWYHGRCVGILQSEAELIDEVVCPQCQST, the abundance fitness is -0.381 ± 0.091.

On to TKKDTKLYCICKTPYDESKFYIGCDRCQNWYHGRCVGILQSEAELIDERVCPQCQST, for which the abundance fitness is -0.47 ± 0.085.

TKKDTKLYCICKTPYDESKFYIGCDRCQNWYHGRCVGILQSEAELIDEGVCPQCQST: the abundance fitness was -0.526 ± 0.11.

For TKKDTKLYCICKTPYDESKFYIGCDRCQNWYHGRCVGILQSEAELIDETVCPQCQST, the abundance fitness was -0.447 ± 0.1.

As for TKKDTKLYCICKTPYDESKFYIGCDRCQNWYHGRCVGILQSEAELIDFYVCPQCQST, the abundance fitness is -0.262 ± 0.11.

Consider TKKDTKLYCICKTPYDESKFYIGCDRCQNWYHGRCVGILQSEAELIDRYVCPQCQST, for which the abundance fitness amounted to 0.055 ± 0.07.

As to TKKDTKLYCICKTPYDESKFYIGCDRCQNWYHGRCVGILQSEAELIDSYVCPQCQST, the abundance fitness stood at 0.051 ± 0.088.

As to TKKDTKLYCICKTPYDESKFYIGCDRCQNWYHGRCVGILQSEAELIDGYVCPQCQST, the abundance fitness is -0.112 ± 0.095.

On to TKKDTKLYCICKTPYDESKFYIGCDRCQNWYHGRCVGILQSEAELIDPYVCPQCQST, for which the abundance fitness amounted to 0.086 ± 0.086.

Take TKKDTKLYCICKTPYDESKFYIGCDRCQNWYHGRCVGILQSEAELIDHYVCPQCQST: the abundance fitness is -0.062 ± 0.11.

As for TKKDTKLYCICKTPYDESKFYIGCDRCQNWYHGRCVGILQSEAELIDQYVCPQCQST, the abundance fitness is -0.161 ± 0.12.

On to TKKDTKLYCICKTPYDESKFYIGCDRCQNWYHGRCVGILQSEAELIDVYVCPQCQST, for which the abundance fitness was -0.022 ± 0.09.

Turning to TKKDTKLYCICKTPYDESKFYIGCDRCQNWYHGRCVGILQSEAELIDNYVCPQCQST, the abundance fitness came out at 0.076 ± 0.14.

As to TKKDTKLYCICKTPYDESKFYIGCDRCQNWYHGRCVGILQSEAELIDLYVCPQCQST, the abundance fitness was -0.139 ± 0.083.

In the case of TKKDTKLYCICKTPYDESKFYIGCDRCQNWYHGRCVGILQSEAELIDTYVCPQCQST, the abundance fitness is -0.002 ± 0.096.

TKKDTKLYCICKTPYDESKFYIGCDRCQNWYHGRCVGILQSEAELIDYYVCPQCQST: the abundance fitness was -0.125 ± 0.1.

Consider TKKDTKLYCICKTPYDESKFYIGCDRCQNWYHGRCVGILQSEAELIDKYVCPQCQST, for which the abundance fitness was -0.109 ± 0.12.

Take TKKDTKLYCICKTPYDESKFYIGCDRCQNWYHGRCVGILQSEAELIDIYVCPQCQST: the abundance fitness was -0.063 ± 0.12.

TKKDTKLYCICKTPYDESKFYIGCDRCQNWYHGRCVGILQSEAELIDWYVCPQCQST: the abundance fitness is -0.295 ± 0.12.

For the variant TKKDTKLYCICKTPYDESKFYIGCDRCQNWYHGRCVGILQSEAELIDEYSCPQCQST, the abundance fitness was -0.167 ± 0.077.

Take TKKDTKLYCICKTPYDESKFYIGCDRCQNWYHGRCVGILQSEAELIDEYECPQCQST: the abundance fitness worked out at 0.132 ± 0.15.

In the case of TKKDTKLYCICKTPYDESKFYIGCDRCQNWYHGRCVGILQSEAELIDEYQCPQCQST, the abundance fitness is -0.191 ± 0.14.

Consider TKKDTKLYCICKTPYDESKFYIGCDRCQNWYHGRCVGILQSEAELIDEYACPQCQST, for which the abundance fitness is -0.252 ± 0.088.

Take TKKDTKLYCICKTPYDESKFYIGCDRCQNWYHGRCVGILQSEAELIDEYICPQCQST: the abundance fitness was -0.013 ± 0.095.

For TKKDTKLYCICKTPYDESKFYIGCDRCQNWYHGRCVGILQSEAELIDEYPCPQCQST, the abundance fitness is -0.558 ± 0.1.

With TKKDTKLYCICKTPYDESKFYIGCDRCQNWYHGRCVGILQSEAELIDEYRCPQCQST, the abundance fitness was -0.145 ± 0.062.

Regarding TKKDTKLYCICKTPYDESKFYIGCDRCQNWYHGRCVGILQSEAELIDEYMCPQCQST, the abundance fitness is -0.159 ± 0.11.

Turning to TKKDTKLYCICKTPYDESKFYIGCDRCQNWYHGRCVGILQSEAELIDEYFCPQCQST, the abundance fitness was -0.099 ± 0.12.

Turning to TKKDTKLYCICKTPYDESKFYIGCDRCQNWYHGRCVGILQSEAELIDEYDCPQCQST, the abundance fitness was -0.268 ± 0.15.

For TKKDTKLYCICKTPYDESKFYIGCDRCQNWYHGRCVGILQSEAELIDEYHCPQCQST, the abundance fitness is -0.288 ± 0.12.

As to TKKDTKLYCICKTPYDESKFYIGCDRCQNWYHGRCVGILQSEAELIDEYGCPQCQST, the abundance fitness was -0.672 ± 0.088.

Consider TKKDTKLYCICKTPYDESKFYIGCDRCQNWYHGRCVGILQSEAELIDEYNCPQCQST, for which the abundance fitness is -0.203 ± 0.14.

For the variant TKKDTKLYCICKTPYDESKFYIGCDRCQNWYHGRCVGILQSEAELIDEYTCPQCQST, the abundance fitness was 0.037 ± 0.086.

Turning to TKKDTKLYCICKTPYDESKFYIGCDRCQNWYHGRCVGILQSEAELIDEYLCPQCQST, the abundance fitness amounted to 0.015 ± 0.074.

For the variant TKKDTKLYCICKTPYDESKFYIGCDRCQNWYHGRCVGILQSEAELIDEYCCPQCQST, the abundance fitness is -0.228 ± 0.095.

TKKDTKLYCICKTPYDESKFYIGCDRCQNWYHGRCVGILQSEAELIDEYKCPQCQST: the abundance fitness was -0.102 ± 0.11.

The record behind these values is the Human Domainome abundance scans (Beltran et al. 2025).
